Assay [1] addresses T1, human ITGa3 protein (human, UniProt P26006 33-991).
T1 chain: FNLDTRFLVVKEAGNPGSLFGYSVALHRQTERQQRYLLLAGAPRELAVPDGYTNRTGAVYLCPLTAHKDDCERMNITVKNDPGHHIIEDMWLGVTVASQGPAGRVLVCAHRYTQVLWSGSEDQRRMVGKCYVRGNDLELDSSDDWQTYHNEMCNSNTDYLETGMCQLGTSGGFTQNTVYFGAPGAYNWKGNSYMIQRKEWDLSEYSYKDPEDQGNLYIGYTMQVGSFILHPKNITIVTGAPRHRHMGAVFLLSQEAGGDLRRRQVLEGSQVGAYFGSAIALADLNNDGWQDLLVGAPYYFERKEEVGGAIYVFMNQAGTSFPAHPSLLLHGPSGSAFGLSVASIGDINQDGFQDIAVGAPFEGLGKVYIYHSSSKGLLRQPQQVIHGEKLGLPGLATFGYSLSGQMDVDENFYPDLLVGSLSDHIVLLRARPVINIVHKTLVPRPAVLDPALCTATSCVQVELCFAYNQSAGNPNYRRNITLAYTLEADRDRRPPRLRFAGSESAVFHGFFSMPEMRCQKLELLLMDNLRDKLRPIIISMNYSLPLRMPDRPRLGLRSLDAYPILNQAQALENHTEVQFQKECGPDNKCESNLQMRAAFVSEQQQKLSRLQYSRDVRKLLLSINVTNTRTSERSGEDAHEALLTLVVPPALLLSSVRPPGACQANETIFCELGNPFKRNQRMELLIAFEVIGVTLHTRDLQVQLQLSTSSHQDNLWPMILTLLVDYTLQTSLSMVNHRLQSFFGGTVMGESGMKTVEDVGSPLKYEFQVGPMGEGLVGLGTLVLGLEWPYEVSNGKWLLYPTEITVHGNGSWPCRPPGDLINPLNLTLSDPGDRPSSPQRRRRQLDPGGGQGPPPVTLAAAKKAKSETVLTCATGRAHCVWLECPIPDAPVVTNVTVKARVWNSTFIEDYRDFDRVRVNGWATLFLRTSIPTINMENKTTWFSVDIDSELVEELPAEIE
The assay is described as follows: ELISA; apparent Kd. On the technique in general: In an ELISA, binding on a coated surface is turned into a signal by an enzyme label.

For assay [2], the target named is T2, human ITGa3 on human-derived cell lines (human, UniProt P26006 33-1051).
T2 chain: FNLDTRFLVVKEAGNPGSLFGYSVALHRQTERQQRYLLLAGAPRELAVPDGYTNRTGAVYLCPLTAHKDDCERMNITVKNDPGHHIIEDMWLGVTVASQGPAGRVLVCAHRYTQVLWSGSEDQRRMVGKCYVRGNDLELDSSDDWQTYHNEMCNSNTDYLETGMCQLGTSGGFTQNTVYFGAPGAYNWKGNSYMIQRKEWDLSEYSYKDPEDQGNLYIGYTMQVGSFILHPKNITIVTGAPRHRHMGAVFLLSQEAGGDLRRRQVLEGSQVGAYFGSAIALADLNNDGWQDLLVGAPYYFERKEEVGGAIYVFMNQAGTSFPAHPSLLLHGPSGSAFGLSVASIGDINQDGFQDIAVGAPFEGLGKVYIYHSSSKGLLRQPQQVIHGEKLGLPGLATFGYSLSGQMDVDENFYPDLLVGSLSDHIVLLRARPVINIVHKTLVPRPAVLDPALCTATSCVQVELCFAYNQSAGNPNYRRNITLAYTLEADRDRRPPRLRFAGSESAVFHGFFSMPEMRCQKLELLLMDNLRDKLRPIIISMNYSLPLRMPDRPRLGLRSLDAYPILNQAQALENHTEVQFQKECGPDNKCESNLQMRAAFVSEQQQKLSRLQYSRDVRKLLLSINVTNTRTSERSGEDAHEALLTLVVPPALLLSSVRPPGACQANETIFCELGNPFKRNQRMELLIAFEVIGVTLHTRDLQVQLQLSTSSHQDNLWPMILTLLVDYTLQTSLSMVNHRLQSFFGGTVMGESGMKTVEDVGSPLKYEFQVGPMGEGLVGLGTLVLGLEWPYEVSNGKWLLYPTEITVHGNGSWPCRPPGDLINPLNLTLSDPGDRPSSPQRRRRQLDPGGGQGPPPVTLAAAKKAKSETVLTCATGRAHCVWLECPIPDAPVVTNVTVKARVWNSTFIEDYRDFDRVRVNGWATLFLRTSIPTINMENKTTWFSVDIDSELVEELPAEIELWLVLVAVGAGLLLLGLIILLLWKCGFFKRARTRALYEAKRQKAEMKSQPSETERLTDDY
The assay is described as follows: FACS; human H292 cells. For orientation: Flow cytometry measures light scatter and fluorescence of single cells or particles in a stream.

Assay [3] addresses T3, cynomolgus monkey ITGa3 on cynomolgus-derived primary kidney epithelial cells (cynomolgus monkey, UniProt A0A2K5VFR2 17-1035).
T3 chain: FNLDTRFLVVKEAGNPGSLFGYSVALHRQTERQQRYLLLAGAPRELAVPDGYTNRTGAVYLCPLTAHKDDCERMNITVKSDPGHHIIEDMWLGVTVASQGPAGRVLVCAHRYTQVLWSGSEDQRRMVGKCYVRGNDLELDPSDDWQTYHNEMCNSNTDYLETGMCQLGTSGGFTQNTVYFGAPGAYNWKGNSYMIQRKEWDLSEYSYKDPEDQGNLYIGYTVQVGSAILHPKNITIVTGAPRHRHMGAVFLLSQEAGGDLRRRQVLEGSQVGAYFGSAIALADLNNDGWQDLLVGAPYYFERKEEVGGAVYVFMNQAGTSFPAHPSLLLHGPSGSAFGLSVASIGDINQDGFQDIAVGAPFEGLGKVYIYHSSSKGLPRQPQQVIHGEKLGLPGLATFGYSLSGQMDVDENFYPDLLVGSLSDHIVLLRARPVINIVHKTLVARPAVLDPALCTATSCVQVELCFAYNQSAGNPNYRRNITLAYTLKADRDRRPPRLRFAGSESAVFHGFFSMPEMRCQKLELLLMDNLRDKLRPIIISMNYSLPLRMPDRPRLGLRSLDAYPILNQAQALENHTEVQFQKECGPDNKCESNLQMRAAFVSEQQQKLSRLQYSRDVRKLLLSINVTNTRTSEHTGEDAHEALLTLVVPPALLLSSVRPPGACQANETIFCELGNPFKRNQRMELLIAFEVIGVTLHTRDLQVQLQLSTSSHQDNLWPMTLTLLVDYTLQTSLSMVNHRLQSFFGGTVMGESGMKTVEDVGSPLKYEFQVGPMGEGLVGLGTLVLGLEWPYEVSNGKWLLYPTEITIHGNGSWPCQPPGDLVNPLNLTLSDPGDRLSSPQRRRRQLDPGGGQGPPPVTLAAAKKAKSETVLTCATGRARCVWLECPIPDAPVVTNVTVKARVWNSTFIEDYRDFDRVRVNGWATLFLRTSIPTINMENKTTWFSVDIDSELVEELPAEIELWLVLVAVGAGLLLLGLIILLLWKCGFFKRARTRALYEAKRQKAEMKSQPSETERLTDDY
Briefly: FACS; cyno primary kidney epithelial cells.

B1: anti-ITGa3 huVM2 Hc2T62G/Lc1 antibody (antibody, V domains shown)
VH: QVQLVQSGAEVKKPGSSVKVSCKASGYTFTEYIIHWVRQAPGQGLEWIGWFYPESGSVKYNEGFKGRATITADKSTSTAYMELSSLRSEDTAVYYCARHEERDYYGYYAMDYWGQGTTVTVSS
VL: DIQMTQSPSSLSASVGDRVTITCSASSSISSNYLHWYQQKPGKVPKLLIYRTSNLASGVPSRFSGSGSGTDYTLTISSLQPEDVATYYCQQGSSIPRFTSGGGTKVEIKR
Regarding B1, the results for the Kd in assay [1], in assay [2] and in assay [3] were 0.18 nM, 0.27 nM and 0.17 nM, respectively.
